Experimental data published in publication PMC5115963 (Molecular cell, 2016).

Molecular target: T1, Rrp44 D171N/D551N (S. cerevisiae, UniProt Q08162 1-1001, D171N | D551N)
T1 sequence: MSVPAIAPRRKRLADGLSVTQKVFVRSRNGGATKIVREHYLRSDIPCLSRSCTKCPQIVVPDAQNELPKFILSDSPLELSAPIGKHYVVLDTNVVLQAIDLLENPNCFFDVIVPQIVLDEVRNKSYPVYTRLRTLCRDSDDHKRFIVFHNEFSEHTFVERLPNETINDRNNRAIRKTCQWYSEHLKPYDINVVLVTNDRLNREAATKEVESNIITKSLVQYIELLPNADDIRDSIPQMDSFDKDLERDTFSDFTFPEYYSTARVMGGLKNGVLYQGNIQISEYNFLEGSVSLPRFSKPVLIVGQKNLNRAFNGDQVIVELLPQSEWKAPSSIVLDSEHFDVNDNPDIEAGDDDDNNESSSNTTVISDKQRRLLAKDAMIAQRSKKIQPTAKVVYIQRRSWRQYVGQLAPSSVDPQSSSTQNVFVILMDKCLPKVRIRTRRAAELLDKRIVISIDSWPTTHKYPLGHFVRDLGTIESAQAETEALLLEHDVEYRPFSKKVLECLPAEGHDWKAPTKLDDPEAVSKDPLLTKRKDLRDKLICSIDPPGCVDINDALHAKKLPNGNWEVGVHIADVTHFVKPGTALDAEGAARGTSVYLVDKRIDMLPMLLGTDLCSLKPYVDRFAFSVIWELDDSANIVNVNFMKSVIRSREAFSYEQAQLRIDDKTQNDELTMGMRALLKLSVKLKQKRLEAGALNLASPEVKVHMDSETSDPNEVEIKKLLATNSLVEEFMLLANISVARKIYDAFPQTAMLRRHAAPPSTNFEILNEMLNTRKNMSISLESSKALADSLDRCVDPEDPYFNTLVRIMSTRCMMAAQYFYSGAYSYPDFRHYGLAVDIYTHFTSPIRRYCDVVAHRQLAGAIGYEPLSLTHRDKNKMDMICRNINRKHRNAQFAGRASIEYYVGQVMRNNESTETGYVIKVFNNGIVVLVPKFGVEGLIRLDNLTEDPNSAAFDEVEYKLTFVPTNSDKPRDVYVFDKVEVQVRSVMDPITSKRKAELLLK
Assay: crystal structure

B1: Rrp43 (natural protein, S. cerevisiae)
chain: MAESTTLETIEIHPITFPPEVLARISPELSLQRHLSLGIRPCLRKYEEFRDVAIENNTLSRYADAGNIDTKNNILGSNVLKSGKTIVITSITGGIIEETSAAIKDLDDFGEEELFEVTKEEDIIANYASVYPVVEVERGRVGACTDEEMTISQKLHDSILHSRILPKKALKVKAGVRSANEDGTFSVLYPDELEDDTLNETNLKMKRKWSYVLYAKIVVLSRTGPVFDLCWNSLMYALQSVKLPRAFIDERASDLRMTIRTRGRSATIRETYEIICDQTKSVPLMINAKNIAFASNYGIVELDPECQLQNSDNSEEEEVDIDMDKLNTVLIADLDTEAEETSIHSTISILAAPSGNYKQLTLVGGGAKITPEMIKRSLLLSRVRADDLSTRFNI
  binding result: binds
